Tested on: mid c-Met expressing colorectal cancer xenograft model HT-29
Assay: In vivo anti-tumor activity, HT-29 xenograft
Design: species or system balb/c nude mice
Conditions: single IV dose, toxin-matched 6 (DAR1), 3 (DAR2), 2 (DAR3), 1.5 (DAR4) mg/kg, FIG. 7A
Method: For the HT-29 model, tumor cell suspensions (3×10^6 cells in 0.1 ml PBS) were implanted subcutaneously into balb/c nude mice. When mean tumor volume reached ˜160 mm3, the animals were randomly assigned to groups (n=8 per group) and treated with a single IV dose of test articles as shown in Table 14.1. Dose levels of ADCs at different DARs were molar matched to toxin. Tumor volume and body weight were measured twice weekly with a study duration of 32 days.

B1: v17427-MCvcPABC-MMAE (conjugate, chains of the INN, looked up)
VH: QVQLVQSGAEVKKPGASVKVSCKASGYIFTAYTMHWVRQAPGQGLEWMGWIKPNNGLANYAQKFQGRVTMTRDTSISTAYMELSRLRSDDTAVYYCARSEITTEFDYWGQGTLVTVSS
VL: DIVMTQSPDSLAVSLGERATINCKSSESVDSYANSFLHWYQQKPGQPPKLLIYRASTRESGVPDRFSGSGSGTDFTLTISSLQAEDVAVYYCQQSKEDPLTFGGGTKVEIK
modifications: IgG, HetFc MC-vc-PABC-MMAE
  tumor growth inhibition compared to vehicle: did not significantly inhibit tumor growth

— patent US20260042847A1, “CYSTEINE ENGINEERED ANTIBODY CONSTRUCTS, CONJUGATES AND METHODS OF USE” (ZYMEWORKS INC., priority 2021, published 2026)
